Assay results taken from patent publication US20220133733A1 (Bicycle, published 2022).
Like-named read-outs stand apart in the source and are kept apart here. Starred links: 1 amine or outer side, 2 acyl side, 3 side chain; linkers in the order of their positions; H or OH if unused. Positions of bridges follow the written chain, without caps; N, C: chain ends. No end group written: not given here. TBMB = c1c(C[*:1])cc(C[*:3])cc1C[*:2]

T1: human CD38 (human, UniProt P28907 43-300, limits assumed)
T1 construct: also called hCD38
T1 sequence (looked up): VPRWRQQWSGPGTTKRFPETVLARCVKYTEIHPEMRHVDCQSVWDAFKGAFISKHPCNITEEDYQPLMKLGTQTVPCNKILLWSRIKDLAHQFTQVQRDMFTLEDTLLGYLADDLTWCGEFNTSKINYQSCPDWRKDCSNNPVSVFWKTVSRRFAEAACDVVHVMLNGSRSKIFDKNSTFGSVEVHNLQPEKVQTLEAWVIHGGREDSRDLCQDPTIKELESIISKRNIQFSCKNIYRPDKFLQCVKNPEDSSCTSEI

B1: BT66BDC-1 (peptide)
peptide: XXXXXXXXXXXACVPCADFPIWYC
modifications: DM1 toxin conjugated to the peptide through a linker shown only in the drawing of formula (I); N-terminal beta-alanine followed by ten sarcosines (Sar10); Ci, Cii and Ciii bound to TBMB scaffold
notes: The attachment site and linker stand only in drawings; also called BDC of formula (I)

Experiments:
[1] = biological target: T1, human CD38; test: fluorescence polarisation competition, tracer …-Sar6-K(Fl)
[2] = biological target: T1, human CD38; test: as above; remark: listed apart in the source

| Binder | Ki [1] [nM] | Ki [2] [nM] |
| --- | --- | --- |
| ACFTLDGECFLLGENCA (linker 2-9-16 via TBMB (inferred)) [66-08-52-N001] | 562 |  |
| B1 |  | 144 |
